Assay [1] concerns the target T1, CCR5 (Homo sapiens, UniProt P51681). Particulars: cited from earlier work.
Assay [2] concerns the target T1, CCR5. The experiment in a line: Drug interaction (synergy) analysis of two-drug combinations in the CCF assay (Greco and Prichard models). Also noted: host or cells: CEM-NKr-CCR5-Luc. Type of assay: cell-based.
From the text: For the in vitro cell-cell fusion studies, the possibility of either enhanced (synergy) or reduced (antagonism) efficacy of CCR5 antibodies in combination with CCR5 antagonists was considered.
The concentration response surface approach described by Greco et al. (Cancer Res. 1990 50:5318-5327) was used to analyze the data. A seven-parameter non-linear model (i) was fit to all experimental data including percent inhibitions calculated from replicates for all concentrations of the two drugs alone and in combination from two 384-well plates. […]
Loewe additivity or no interaction is indicated when the 95% confidence interval of a includes 0. Furthermore, the predicted additivity of the drugs combined was calculated by using all estimated parameters of the Greco model, except a that is fixed at 0. […]
Theoretical additive interactions were calculated from the dose response curves of the individual drugs based on the Bliss Independence equation. […]
The total sum of differences between the observed percent inhibitions and the upper bound of 95% confidence interval of predicted additive percentages is calculated as a statistically significant synergy volume ΣSYN. The total sum of differences between the observed percent inhibitions and the lower bound of 95% confidence interval of predicted additive percentages is calculated as a statistically significant antagonism volume ΣANT. […]
The target in assay [3] is T1, CCR5. The experiment in a line: CCR5 mAb binding to CHO-CCR5 cells after pre-incubation with CCR5 antagonists (FACS). Particulars: pre-incubation with 50 nM MVC, AK602 or SCH-D, RT 1 h. The source says: FIG. 4—The graph illustrates the effect of CCR5 antagonists on the time course of 5 mAb binding. […] The time course curves for each mAb in the presence of various antagonists were created based on their mean fluorescence intensity (MFI) values.
(§1) The potential for synergism should be maximized when both the antibody and the low molecular weight antagonist (or fusion or attachment inhibitor) can bind independently to the CCR5 receptor.

For assay [4], the target named is T1, CCR5. As to the kind of experiment: 3H-MVC binding to CHO-CCR5 cells after pre-incubation with CCR5 mAbs. As to conditions: CHO-CCR5 cells preincubated with 30 μg/mL mAb, 26 nM 3H-MVC. As to the method: The cells (2×10^5/100 μL) were pre-incubated with 30 μg/mL of CCR5 mAbs or PBS at RT for 1 h, then incubated with 26 nM of ^3H-MVC. At the end of various time points, cells were washed and the membrane bound ^3H-MVC was measured as described in Example 2. The maximal counts from the control samples were set as 100% binding and the relative binding for all other samples were calculated and the time course curves were generated based on these relative binding at each time point.
as §1

T1 sequence (P51681 whole entry): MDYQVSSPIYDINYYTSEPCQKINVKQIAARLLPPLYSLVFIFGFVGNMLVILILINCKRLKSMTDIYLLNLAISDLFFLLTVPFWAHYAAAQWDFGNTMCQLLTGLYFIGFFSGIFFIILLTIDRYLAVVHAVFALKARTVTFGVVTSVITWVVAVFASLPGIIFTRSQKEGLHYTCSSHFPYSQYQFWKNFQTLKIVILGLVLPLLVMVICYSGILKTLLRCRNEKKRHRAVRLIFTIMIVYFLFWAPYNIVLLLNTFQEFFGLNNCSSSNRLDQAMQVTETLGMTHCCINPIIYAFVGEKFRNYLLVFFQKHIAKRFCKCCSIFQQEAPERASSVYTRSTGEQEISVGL

Regarding `CCCCN1C(=O)[C@@H]([C@H](O)C2CCCCC2)NC(=O)C12CCN(Cc1ccc(Oc3ccc(C(=O)O)cc3)cc1)CC2` [AK602, reference compound], the “effect on the binding of mAb 45523, in words” value on CCR5 [1] is reported as “completely blocked”. At CCR5 [2] (combination in cell-cell fusion assay), the “drug interaction in words (synergy / antagonism)” value is given as “highest synergy”.

B1: RoAb13: mouse anti-human CCR5 monoclonal antibody (Roche), binds the N-terminal end of CCR5 (antibody, V domains shown)
VH: EVKLVESGGGLVKPGGSLKLSCAASGFTFSTYAMSWVRQTPEKRLEWVASISTGDNTYYTDSVRGRFTISRDNARNILYLQMSSLRSEDTAMYFCTRGRGDRGDLFGYWGQGTLVTVSS
VL: DIVMSQSPSSLAVSVGEKVTMSCKSSQSLLYRGNQMNYLAWYQQKPGQSPKLLIYWASTRESGVPDRFTGSGSGTEFTLTISSVKAEDLTVYYCQQYYTYPRTFGGGTKLEIKR
For B1, in the assay with CCR5 [3], the “mAb binding to CHO-CCR5 cells, effect of CCR5 antagonists, in words” value is listed as “unaffected”. Further, the “effect on MVC binding, in words” value with CCR5 [4] is on record as “no effect”. In addition, the “higher synergy than ROAb14 when combined with MVC” value with CCR5 [2] (combination with MVC) is “approximately 60%”.

The values above are taken from US20080299132A1, “Synergistic compositions for treating HIV-1” (Roche Palo Alto LLC, priority 2006, published 2008).
